Data set [1] in a line: folding stability dG unfold from trypsin proteolysis; higher = more stable. Put shortly: (§1)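 Mini-proteins designed to be under 80 residues and free of cysteine were carried in a PA-tagged cDNA display construct and digested with trypsin and with chymotrypsin. Each protease was applied at 11 threefold-diluted concentrations, alongside a no-protease condition, before sequencing. K50 came from Bayesian fitting of the sequencing counts, and unfolding free energy was obtained by comparing it with a sequence-predicted unfolded-state K50 and a shared folded-state K50, for each protease separately or for both together. Designs were retained only if their AlphaFold2 dimer inter-PAE exceeded 15.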

The nature of data set [2]: folding stability dG unfold from chymotrypsin proteolysis; higher = more stable. In short, it runs like this:
as §1

Data set [3] is described as follows: folding stability dG unfold (combined trypsin and chymotrypsin); higher = more stable. In short, it runs like this: as §1

± gives the half width of the 95% confidence interval.

As to “SAGGGSMTPTTTTKTYNVPPELAQKILDGYPLGDKELAAALGLPPDVEVTLVSSDEDTLTVEITIPASAGGS [r16_679_JUSTAS]”, the “folding stability dG unfold” value was 3.48 ± 0.14 kcal/mol in data set [1], 4.05 ± 0.068 kcal/mol in data set [2] and 3.81 ± 0.075 kcal/mol in data set [3].
The like results for “SAGGGSMVTQTEFTLPDGTKVSESTLPDGTVTTTITDPTNPTVTTSPVRTVSPGPLSPANPALVAALSAGGS [r16_482_JUSTAS]” were, in that order, -1.09 ± 0.18 kcal/mol, -0.17 ± 0.18 kcal/mol and -0.317 ± 0.1 kcal/mol.
The like results for “SAGGGSSSSSLTFTYDPATGKVLGSESFTIPSPSGEPRTNVLTLVEKNPSGTLKTTVLTRPVPPTLSSAGGS [r16_595_JUSTAS]” were, in that order, 1.55 ± 0.1 kcal/mol, 2.62 ± 0.096 kcal/mol and 2.66 ± 0.35 kcal/mol.
The like results for “SAGGGSTTTRTIGSKDGTVATVTVTTDPATGTTTVTISSPSPEVLEEVAAQLGLPVREVLPDGTVVLASAGG [r13_937_JUSTAS]” were, in that order, 0.659 ± 0.023 kcal/mol, 1.25 ± 0.015 kcal/mol and 1.08 ± 0.037 kcal/mol.
With “SAGGGSTTTYSIPEGPLTLEVTTVTVGDGTVKKTVVTTPEGKRTEIPPSNPITIPPNWTVTSSVTLTSAGGS [r16_669_JUSTAS]”, the “folding stability dG unfold” value in data set [1] was -0.114 ± 0.12 kcal/mol; in data set [2], 0.0533 ± 0.16 kcal/mol; in data set [3] it was 0.0118 ± 0.16 kcal/mol.
For “SAGGHTIWIPFDSPEQAKELANEIARELNDHGLKVKVKVHPDDGWIKVKVDMRNNDKEKKIKIWFPFPSAGG [r13_641_TrROS]” the same measures were 0.844 ± 0.1 kcal/mol, 2.44 ± 0.18 kcal/mol and 1.78 ± 0.36 kcal/mol.
For “SAGGIAEAIGEAIAKAPGVAEVEVDIEITKIEPTPGDGAYAHIDIRVRARHPVTGEEVELRFDIVFPLDSAG [r5_176_TrMRF]” the same measures were 2.89 ± 0.14 kcal/mol, 3.18 ± 0.15 kcal/mol and 3.05 ± 0.17 kcal/mol.
The like results for “SAGGIEDIANEFGIEDVEIEEINPEYNEVTVTFRFRGPNGNPFTWTYTIEVPPPPPPEPKMDPEDNNNSAGG [r13_608_TrROS]” were, in that order, 1.06 ± 0.12 kcal/mol, 2.44 ± 0.16 kcal/mol and 1.81 ± 0.32 kcal/mol.
For the sequence “SAGGIIIYPKDPDGKQRPIPPEVIRRIVDTIARRYGFEIKIDIEIEPTNDYWVITIPIEIEGLPPEQLSAGG [r13_790_TrROS]”, the “folding stability dG unfold” value in data set [1] came out at 1.87 ± 0.06 kcal/mol; in data set [2] it was 2.23 ± 0.068 kcal/mol; in data set [3], 2.18 ± 0.086 kcal/mol.
For “SAGGIKEFADTLQDHGGTVTVEPVNNGSLKVSIQHRDPEDGRMYRMEIEIPPENNKLEIDDWEPYPNSAGGS [r16_613_TrROS]” the same measures were 0.071 ± 0.15 kcal/mol, 0.31 ± 0.27 kcal/mol and 0.0987 ± 0.21 kcal/mol.
For “SAGGIKELAKKGYEIKEVTVRVRNKDGSVYEITEIKVVDGELYIKVKNKKTGKIEEKKIPLKDIEIVPSAGG [r13_340_TrROS_Hall]” the same measures were 1.19 ± 0.045 kcal/mol, 2.12 ± 0.029 kcal/mol and 1.83 ± 0.09 kcal/mol.
For “SAGGIKIEIMFLMPLKDVRSIIDEIAKMPGIKITDVEVDIIPFENGTVMFRVTFEIEIYDPENGEPISAGGS [r8_374_TrROS]”, the “folding stability dG unfold” value worked out at 3.95 ± 0.21 kcal/mol in data set [1], 4.78 ± 0.18 kcal/mol in data set [2] and 4.27 ± 0.36 kcal/mol in data set [3].
With “SAGGIPPNDPEYQQKMQLLKEIQNFAKEQQQNGRDVKIETIEINPEDGRVTITVQYPNGKKVTITIPSAGGS [r8_277_TrROS]”, the “folding stability dG unfold” value was 1.79 ± 0.057 kcal/mol in data set [1], 1.56 ± 0.048 kcal/mol in data set [2] and 1.66 ± 0.064 kcal/mol in data set [3].
The like results for “SAGGIWIPIDRIREALKDGMPLDEIVDKLRKHGFPIDRITGIEPSPNSWTIEIEFPEQGMPIEIQISSAGGS [r8_179_TrROS]” were, in that order, 1.93 ± 0.052 kcal/mol, 1.66 ± 0.035 kcal/mol and 1.9 ± 0.085 kcal/mol.
In the case of “SAGGIWIPVPNADWAVDFIIEFIDQFGPGAKIDKITVYNGGKEREITPGEPPKIPPGSWFEIDLEPKSAGGS [r16_267_TrROS]”, the “folding stability dG unfold” value in data set [1] came out at 0.698 ± 0.037 kcal/mol; in data set [2] it was 1.15 ± 0.085 kcal/mol; in data set [3], 0.984 ± 0.075 kcal/mol.
With “SAGGKDGKPKPKVEPEITVQFYIPLPPDDLTPEEIAQWMSDHFGFPFTNVEIERHPEDNYYRVSFTIRSAGG [r13_457_TrROS]”, the “folding stability dG unfold” value in data set [1] is 1.86 ± 0.064 kcal/mol; in data set [2], 2.56 ± 0.1 kcal/mol; in data set [3], 2.4 ± 0.086 kcal/mol.
For “SAGGKDVKPIPVRIKIWYPDDGKPIHEIPVSAYQMDDKIHITFESPELLQFAKELAQKKGFKVEIEPSAGGS [r16_327_TrROS]” the same measures were 0.513 ± 0.047 kcal/mol, 0.751 ± 0.12 kcal/mol and 0.695 ± 0.11 kcal/mol.
Turning to “SAGGKEKKKEKEEKKKKPKPKFIKIKLSPEELLKLAKELPNIDRIFVEVDGKLYEFDAKTGKIVEVDSAGGS [r16_214_TrROS_Hall]”, the “folding stability dG unfold” value came out at 1.28 ± 0.1 kcal/mol in data set [1], 2.4 ± 0.08 kcal/mol in data set [2] and 1.97 ± 0.18 kcal/mol in data set [3].

(Values after the supplement of paper PMC12764529.)
